Assay: soluble on expression in E. coli; label from the status in PepcDB or PDB records

Row | Sequence | soluble on expression in E. coli
1 | MGSDKIHHHHHHMKTERLISYLRPGRWPSVWCPGCGNGIVLKAFLEAVDDLALPKEKVAVVSGIGCSSRATGYLDFNTLHTLHGRAIAFATGVKLAKPDFEVVVMGGDGDILSIGGNHFIHACRRNIDITVVIFNNMIYGMTGGQVSSTTPQYYQTSTTPLGAFEKPFDAVEIALSAGATFVARSTVYHYDHLVRVLKKALQHRGISVVDVLTNCHTYFGRYNGMPEPHQMMEYFKNNTCFLERPEEGKIKIGIFREEEKEDFLTVYRRLTRKEGAME | not soluble
2 | AHHHHHHGSAEMVIPYPHLQRILEKTCELAVTKPMAERMMEIVERKLADLFEVAYENATAENSETIKMRHIPITKGFRSSMNLFRAVIEDENIKIEPILDYVLRKIPADKPLEEEVINELPIITGTLFVLIGRVIKALHPEVRNVYPEHIEEAEKVLDYTL | soluble
3 | MAHHHHHHMDPGAVMPGIVQMSKDNFDQLVGKEKAVLVEFYAPWCGHCKSMAPEYAALGAAYEASTNAKDLLLVGKVDATQDSDLGKRFGVTGFPTILYFAPGSLEPEKYKGGRTAEDFAKYLSSAIAGLRLTIPIEPQFAMELVHTNFDAVVKDPSKAVLVMFYAPWCGHCKALKPIYNTLAKVFSNDKDVVIARINADDAANRKIATEYAVAGFPTVYFFPKGADEKPVEYKNGRNLEDFLTFVNENAGKHRLANGDFSWECGVIAELAEAVALVATSSGESSKAAVEAVKAAAAKLAESEDAAYYIKAAERIAAKGPAYVESESARLKRTLGGSVAGDRRDNMVRRLNILTSIQKHMK | not soluble
4 | MLPKANRIPYAMTVHGDTRIDNYYWLRDDTRSQPEVLDYLHQENEYGRKVMTSQQALQDRILKEIIDRIPPREVSAPYVKNGYRYRYIYEPGCEYAIYQRQSALSEEWDVWETLLDANQRAAHSEFYTLGGLAITPDNTIMALAEDYLSRRQYGLRFRNLESGNWYPELLDNVAPEFVWANDSLTLYYVRKHKKTLLPYQVWRHTIGTPSSQDELVYEEKDDTFYVSLHKTTSQHYVVIHLASATTSEVLLLDAELADAEPFSFLPRRKDHEYSLDHYQHKFYLRSNRNGKNFGLYRTRVRNENAWEELIPPREHIMLEGFTLFTDWLVVEERQRGLTSLRQINRKTREVIGIAFDDPAYVTWLAYNPEPETSRLRYGYSSMTTPDTLFELDMDTGERRVLKQTEVPGFDSGCYQSEHLWITARDGVEVPVSLVYHQKYFRKGQNPLLVYGYGSYGSSIDADFSSSRLSLLDRGFVYAIVHVRGGGELGQQWYEDGKFLKKRNTFNDYLDACDALLKLGYGSPSLCYGMGGSAGGMLMGVAINERPELFHGVIAQVPFVDVLTTMLDESIPLTTGEFEEWGNPQDIEYYDYMKSYSPYDNVKAQDYPHLLVTTGLHDSQVQYWEPAKWVAKLRELKTDQRLLLLCTDMDSGHGGKSGRFKSYEGVALEFAFLIGLAQGTLHSA | not soluble
5 | MDVMALKREVIEYSRSIGIDKIGFASADPFVELKERLRRQQELGYQSGFEEPDIEKRTNPSLLLPEAKSIIAIALAYPSKMKNAPRGTKTERRGVFCRASWGKDYHDVLRERLQQLEEFLLAKVPHARVRSMVDTGELADRAVAERAGIGWSGKNCSIITPEFGSYVYLGEMITNIPFPPDEPVENRCGTCTKCIDACPTGALVQGGQLNAQRCLSFLTQTKGFLADEFREKIGNRLYGCDTCQQVCPENKGKDFHLHPEFEPDPEAVKPKLIPLLQMSNREFKETFGAMAGSWRGKKPIQRNAILALAHYKDQTAVPHLLRLLKEDSRPVIRGTAAWALGKIGDPSAKSYLEAARPTEADADVIAEIEKGLKLLAEAKE | not soluble
6 | MGSDKIHHHHHHMVVLAPHIEWLMETVHIISGLNDGGAEAVLYRLCSSDKAAEHYVISLMDEGKYGALLREAGVQVSCLSMPRGRVTLGGLWRLWRLLRQIRPQAVQTWMYHADLVGGLIARLAGVKQVFWGIHHTTLHAGQSRRSTIWVARLCARISSCLPSAIICCAQKALEAHRELGYAAEKLRVIPNGYDLVRFRVDEDARVRLRTEWNTGSRWLIGMVGRFDPLKDHKNLLDALAIVKYRGVDFCCVLAGRGLDQNNAQLMAWLTELDLAGEVKLLGQRMDIPDVMNALDVHVLSSSSEAFPNVVAEAMACGTSVVTTNVGDAALIVGETGWVVPARNPGMLADALLQAYVAMHDEAAWQVRCTAVRQRVEDHFSLERMVENYHLVWQNKL | not soluble
7 | MSITLSDSAAARVNTFLANRGKGFGLRLGVRTSGCSGMAYVLEFVDEPTPEDIVFEDKGVKVVVDGKSLQFLDGTQLDFVKEGLNEGFKFTNPNVKDECGCGESFKLAAALDHHHHHH | soluble
8 | MPKKVVPEEARRRRRPTRQGAVLSEGLIVRTALRMLREHGTGGLTARRLGAALGADPSTLYRYFAGMDDLARAVGNELMGQALDGWTAQGDWRADLRSLGLALHSSYLAHPQAAVLTASRVSGRPREIAVDEAILGLLRGAGLTDRAAVRFYHAFIDLALAFAALDAGSLALPEEARRSDEDMWGTTYARLPAETHPNIAATAERLAARMPHSAYPVVLDTLLDGIAAELTGTAPEM | not soluble
9 | MKTFPVSIVTPDGPVYEKEVEMVSVKAESGEMGILPGHIPTVAPLKISAVRLKNGGHTDYVAVSGGFIEVRPDKVTVLSSSAEEANHIDIHRANEAKRRAEQRMQDKQAHVDFKRAEMALQRAVNRLNVSDMK | not soluble
10 | MPLFGSIFSPKKTPPRKSASLSNLHSLDRSTRELELGLDYGTPTMNLAGQSLKFENGQWVADSVISGGVDRRETQRLRKRNQQLEEENNLLRLKVDILLDMLSETTAESHLKDKELDELKVTNRRRK | not soluble
11 | MSLLVQFDEFKGHSHEQFMEELDTIMLVSINKLHDNMDLRRRLLIYSVFGKVFQHRKMGILAPHGQEETF | not soluble
12 | GPHMAVVDDLAPGMDSSPPSEDYGRQPPQDLAAEQSVLGGMLLSKDAIADVLERLRPGDFYRPAHQNVYDAILDLYGRGEPADAVTVAAELDRRGLLRRIGGAPYLHTLISTVPTAANAGYYASIVAEKALLRRLVEAGTRVVQYGYAGAEGADVAEVVDRAQAEIYDVADRRLSEDFVALEDLLQPTMDEIDAIASSGG | soluble
13 | MKYIVLLGDGMSDEAVKDLDGKTPLQAAKTPHMDVMARRGRIGLAHTVPKGLPPGSDVANLSVFGYDPRTCYTGRSPLEAASMGVQLGPDDVAFRVNLVNLLPTKGTLVMNDYSAGHISTEEGRELIEAIQQQIGDDEFQFYPGVGYRHLMVWRNGKSGMSATPPHDISGKSILDYLPKGEGADKLIYLMNSSQMILNNHPQYRRRLEADKIPANSIWLWGHGKAPRMEPFKEKFGLAGAVISAVDLINGIGIGAGLDVIRVEGATGYLDTNYEGKVQAALEALETHDYVYLHVEAPDEASHSGNLSHKLQAIEDFDARVVGPIMEGIRRFGSFRILCTPDHPTPLRLKTHTGAPVPFIIYDGGESEDDSIAGYDEDSARTSGLVLEEGHRLMELLLERLEHHHHHH | soluble
14 | MGSDKIHHHHHHMNILEKLFSLKRKVALVTGGGQGIGKAIAQALAAAGAAVLIMDINEETARRTVEEIKEKGGEADFYVGDVTKEEDCFGAVKKALDRWGKLDIGVNNAGIGDWCEAENYPVEKWKKVIDVNLVGVFLSAKAEFHAMKERKYGKIINIASMSGHIVNKPQKQTAYNASKAGVIHLTRSLAAEWAPYGIRVNSISPGYIRTPLIESPNVKDLVPLWLDMIPLGRLGEVDDLIGAAIFLASPASDYMTGHDLVIDGGYTVW | not soluble
15 | MKENPSFLKEQIITYLGNKRALLSFLNNGFKVAKKELGKDKFSFCDIFSGSGVVSRFAKAHSNYILANDLEDYSKLINECYLANKDKDLLQNIKKYYKNLIQNLDFQKGFISELYAPKDDDDIKKNERVFYTFKNALYLDTIRQKIENEIPKELRHFFIAPLIYEASVHSNTSGVFKGFYKGKDGIGKFGGEGQNALKRIKGEIELKMPIFSNFSCEFEVMQKDANMLAKELDFFDVVYLDPPYNQHPYSSNYFMLNLIANYKKPEEISKISGIPKDWNRSTFNKSKFAQDALFELINDLKARVILLSYNCEGFVKKEIFLKRLSTLGKCRILEQKYNTFRASRNLKNRNIHLHEQLYILVKN | not soluble
16 | MSLTEQRAVIAIYLRLSRESDDSTSLETQRSFAHRWLLAHGYDPADAVEYIDASVSGAKPLEARKGMAALMAARPTVVVAWKLDRFARSVSDFLRLVAWAEAHGASIATTDNAIDTTTATGRMVATVLAALAEWERNAIASRITDGHATRRSQGRWSSGRPPFGYRIERRDGAAYLAIDDDQAAKIRKAVAALVNGSTVAATARLTGLSEPQWRRLLKSPTLRGQRAHKGELVCEVDGITPVKFAEPILSAAELLKVRERMLALATGQDRAPRRATPMCSGMAFCHRCAGKLNGGTSDKGVPLYRCKAGHVTIYAETLDSRVESEFLTTFGSYAETVIRLEGGNDLSAELLEAKEQAERLAARMATAGPLMLGTLESLAQDLEDTHARLRAAHDPDVREVQVATGRTMAQAWEMYDVPDRSRLLAGMGLRVSLHPRQLADRLTITWGPTPEEAPEAEWDGLALSEAEGHHHHHH | not soluble
17 | MSLAQWNKQDSIRLQELLNGDGELKINTEAVKSIHFDFQSDKDNIKGTPIMSEDKPWMKFLKDLPKNFGDTTKWVRPNFVRLTPYTPYTTWHEDPVNDPIFLKRKDSLTISWKLNIKLIPGLRNGYVILPAGMDQTVTPSNNPLIGGLDADKFLYESLTKRGRAIRRNRNRAKGWKIYQSYVPTRQDSILFPRISKVSEQDSLPKQDTLLIKKDSAIINQNSLLLKDKINGKDQTEGHHHHHH | soluble
18 | MSLYYLFAPQFHPSKTVYVYVDRDDTADSIYNKIRQTGHVNKFTGFQWMAKYRKFDQNIHTGRYAIRPNENVYHVFSRFFRGYQEPMNLTIGSIRTLDRLARSIGKQLMIDSAEIARQLFDSAFQTEMGYTPVTMPCLFIPETYQVYWDMSVDDFFKRMQTEHKRFWNDERLAQATAIGMTPEEVCTLASIVEEETNNNEEKPMVAGLYINRLHTGMPLQADPTIKFALQDFGLRRITNEHLKVNSPYNTYINSGLPPGPIRIPSKKGLDSVLNYTKHNYIYMCAKEDFSGTHNFASNYADHMANARKYWKALNERKEGHHHHHH | not soluble
19 | GPGSMTNFSPAKCEMDALFLTSAGTDGHPLAQPFWSSSRSSLPTFDAHRRGTARGRLQNPALIDSIRRSEGSRVGQDTCRYMQAAAASSQKAVHQLLSRLQTYRSFKPFLSPPAPYRDNLFTDDRGFSNFHGPSYGRGSTATVSRDQLWQMVDGILDTSVAQLLQHNAEGHFIMTLQSTLGLEAPISTAKSGTVIESRKAATPAIKGGATELASEERTPAGGPRQPLPPALQKTAVMSSFAPASALADRWALDHPSATAAAIEEQHHAWAKFEQQRQRTSRCFYLQAMQEQLDVLQAEQARDAADTTHSPPSRGDRSHRYLVDMHSPSDSEDAVAKTEEERQQALWHTFHDGPVLGVGASESLHETALGVPGIVSAYLESTDLQDWLHCSWAHRTHRHESAALRIQCAYRVYRARCKVREMRYERRQAFLASLSAERKARQVWDLALQVQKDTTTTTSGTDSTLRALQFFINKVNAVVAKHRARKQYQQRQDAEICRYAATRIQAVYRGHRTRAFVTELRHPEIVALRKHLQQENCAKLIQTCWRRYTAQRQWWRARHAACVLQSMYRCYAARRMLAERRYQRSLEASAELTKFAVQRIERWYASFLAARNAIGRAHVAELLMLQRVCRGYQGRHGVQKERRLSRFRFAVRTIEQRRWRVMEVREAIERRAALSATNAAKRTASMRDDAAVTIQRAWRQRRVLHVC | soluble
20 | MSFSGVKVSPECLEAFQELKLGKSLRYVVFKMNDTKTEIVVEKKSTDKDFDTFLGDLPEKDCRYAIYDFEFNLGEGVRNKIIFISWSPDVAPIKSKMVYSSSKDTLRRAFTGIGTDIQATDFSEVAYETVLEKVTRK | soluble

— the DeepSol protein solubility set
